The text below walks through data of article PMC5847591.

One may read the Kd as the concentration at which binding is half-saturated. As usually defined, the koff is a measure of how fast the partners let go of each other.

The experiment deals with NY-ESO-1_(60–72)–HLA-B*07:02 complex (human). Kind of experiment: SPR.

KFJ4 TCR, soluble ectodomain (TRAV13-1 α-chain), sequence (P01848 whole entry, looked up, the tested form may be a part): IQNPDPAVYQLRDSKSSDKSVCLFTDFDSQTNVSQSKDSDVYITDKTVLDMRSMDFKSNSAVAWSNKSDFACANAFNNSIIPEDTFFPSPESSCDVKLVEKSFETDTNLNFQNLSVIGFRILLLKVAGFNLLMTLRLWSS
KFJ15 TCR, soluble ectodomain, sequence (P01848 whole entry, looked up, the tested form may be a part): as above

Turning to “KFJ4 TCR, soluble ectodomain (TRAV13-1 α-chain) (from UniProt P01848)”, the equilibrium dissociation constant (Kd) is 52.1 µM and the koff amounted to 0.12 s⁻¹.
For “KFJ37 TCR, soluble ectodomain (from UniProt A0A0B4J268 18-107; A0A0B4J1U6 20-113)”, the Kd was 40.6 µM and the koff came to 0.109 s⁻¹.
The substance “KFJ15 TCR, soluble ectodomain (from UniProt P01848)” yielded a Kd of 41.5 µM. That is a double-digit micromolar value.
